Laboratory results from US20190127470A1 (TRUSTEES OF DARTMOUTH COLLEGE, published 2019).

Biological target: T1, g2.5-11 scFv-Fc (UniProt P01857-1 1-330 = IgG part)
T1 construct: domain: heavy chain constant regions (CH1-CH3); also called g2.5-3 (identical at the amino acid level); Fg2.5-3
Assay: Octet BLI, scFv-Fc loaded on anti-human CH1 tips, 0-500 nM B7H6-Ig in solution, global fit
Description: Anti-Human CH1 tips were activated with 0.05 mg/mL a2.5-11 scFv-Fc protein for 600 seconds to ensure saturation of tips with […]. Tips were then transferred to PBS+0.1% Tween (PBS-T)-containing wells for baseline measurements of scFv-Fc-loaded tips before transferring to antigen-containing wells ranging from 0-500 nM B7H6-Ig. Samples were double-referenced using non-activated tips and PBS-T only containing wells. The Octet Analysis software was used for global kinetic fits which determine a single KD measurement for each antigen using association and dissociation curves for all concentrations tested.

T1 sequence (P01857 other isoform, or with tags, fused parts or gaps limits assumed): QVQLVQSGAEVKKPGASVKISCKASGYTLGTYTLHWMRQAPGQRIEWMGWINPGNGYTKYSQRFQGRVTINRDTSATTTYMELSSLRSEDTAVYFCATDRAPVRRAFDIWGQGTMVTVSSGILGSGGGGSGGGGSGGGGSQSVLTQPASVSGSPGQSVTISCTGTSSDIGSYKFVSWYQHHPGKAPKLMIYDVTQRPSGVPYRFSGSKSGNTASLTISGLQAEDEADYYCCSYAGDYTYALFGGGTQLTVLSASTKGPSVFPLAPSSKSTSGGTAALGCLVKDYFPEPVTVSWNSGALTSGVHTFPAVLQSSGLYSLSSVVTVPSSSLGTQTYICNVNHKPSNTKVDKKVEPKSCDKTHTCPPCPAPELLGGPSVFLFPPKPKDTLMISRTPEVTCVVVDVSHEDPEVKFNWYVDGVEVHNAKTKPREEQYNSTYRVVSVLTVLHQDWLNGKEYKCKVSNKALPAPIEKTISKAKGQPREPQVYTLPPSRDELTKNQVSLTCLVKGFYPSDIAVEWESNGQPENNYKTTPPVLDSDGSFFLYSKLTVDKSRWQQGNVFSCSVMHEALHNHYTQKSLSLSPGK

B1: B7H6-Ig, a fusion protein containing the extracellular portion of B7H6 and the Fc portion of a Mouse IgG2a (Fc fusion, UniProt Q68D85 25-262, looked up)
chain: DLKVEMMAGGTQITPLNDNVTIFCNIFYSQPLNITSMGITWFWKSLTFDKEVKVFEFFGDHQEAFRPGAIVSPWRLKSGDASLRLPGIQLEEAGEYRCEVVVTPLKAQGTVQLEVVASPASRLLLDQVGMKENEDKYMCESSGFYPEAINITWEKQTQKFPHPIEISEDVITGPTIKNMDGTFNVTSCLKLNSSQEDPGTVYQCVVRHASLHTPLRSNFTLTAARHSLSETEKTDNFS
notes: extracellular domain; also called soluble B7H6-Ig antigen; not shown: Fc portion of a Mouse IgG2a
B1 gave a Kd of 25.7 nM, a koff of 0.00035 s⁻¹ and a kon of 13700 M⁻¹ s⁻¹.
